Test results from patent publication US20220089709A1 (HEFEI LIFEON PHARMACEUTICAL, published 2022).

Experiments:
[1] = target: ED-B domain of human fibronectin, recombinant, with C-terminal six-histidine tag (human) (UniProt P02751); assay: ELISA on coated ED-B, Scatchard assay (Beatty et al.)
[2] = target: T1, ED-B domain of human fibronectin, recombinant, with C-terminal six-histidine tag (human, UniProt P02751 1266-1356); assay: direct ELISA on coated ED-B, Scatchard analysis (Beatty et al.)
T1 construct: Expressed in E. coli from pET-22b(+) (EcoRI/NotI); residues from the vector between ED-B and the tag are not described; also called EDB antigen; antigen ED-B
T1 sequence (P02751 other isoform, or with tags, fused parts or gaps limits assumed): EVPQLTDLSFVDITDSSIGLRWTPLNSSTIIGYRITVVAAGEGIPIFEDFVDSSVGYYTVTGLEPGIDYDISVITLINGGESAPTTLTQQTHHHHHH

ED-B domain of human fibronectin, recombinant, with C-terminal six-histidine tag (human), sequence (P02751 other isoform, or with tags, fused parts or gaps limits assumed): as above

Molecule | Kd [1] [nM] | affinity relative to L19 [2] [fold]
L19-Fc (Fc fusion) | 6 | 
A11 antibody (Fc fusion, Assayed as purified Fc-containing antibody from mammalian cells) EVQLLESGGGLVQPGGSLRLSCAASGFTFSSYAMSWVRQAPGKGLEWVSRISPSGSSTYYADSVKGRFTISRDNSKNTLYLQMNSLRAEDTAVYYCARRMSYFDYWGQGTLVTVSSGGGGSGGGGSGGGGSSQSALTQPASVSGSPGQSITISCSGDSLGIGSNNYVSWYQQHPGKAPKLMIYDDNKRPSGVSNRFSGSKSGNTASLTISGLQAEDEADYYCQSWDGRQPVFGGGTKLTVLG |  | ~3
